Reference: the NTF2 design screens of Basanta et al. (2020)

assay: protease stability score; higher = more stable; yeast display proteolysis, trypsin and chymotrypsin;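 note: log10 excess protease needed over predicted unfolded state with 0 meaning unfolded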

| Sequence | protease stability score |
| --- | --- |
| EDTFVRLVHQMWNDLERGNPEKFRENVDPNARIQVGDQTIHGREQAEEWAERLKRKLQFTVDVKSVTEEPGRIRMRANLINNHNGRPTTKHVIFLANETNGRIKTFRFRQDQ | 0.103 |
| EEDAVDRARKMFENLKTGNEDHFKEQFDPNATIRIGDQKVHGMENLKDHMRKVRKHMRVDFRRVDIKAENGRIDIKARADFSVNGRPVSQHFTARAVVSNGRFKSFELQVSEEDEKKVKS | 0.606 |
| EEDDQRRLQEWLSQGNFEHLAQNADKDAKASVGEYRVHGREQIKRFLERMQDRIDKVHYETVHFHNGVLRATFRFTVNGKQVVMQMRIEARGDKIKYIEMQARDEDNLKKWKELES | 1.03 |
| EEDELRKIKDLLRHGDFETLNRQAPPDATQTVGDQEFTGWEKLHKIWKDLKDRIDHLDWKRITISGETIEARYEFDVDGQRIDMSFRMEVHNGRIQHLEQRATDSDLQKRLKDVIE | 0.069 |
| EEDILKRVKHMLKQLETGNEKEYEKNIDPNVKIKVGDKEIRGREEASRYWHRLRHHMRIRVDVKSMNVKNGQVNMNATVTVDVNGRPVRFEFRMVIHATNGTIKEVTLQVDPDQIRKQLG | 1.61 |
| EEDKAKEAKEIWDKNNERDLRKKADKDARADVGDKKVHGMETAVQMWSKVRQHVDHVQYHDLKIQGETIRIDFVLHWNGRTVRAQVEFKVSNGQLVDFKLKFTDPDQERKLHEMQK | 0.123 |
| EEDKLEHMTKLMTQNDEDRWEELADKNVRIEVGDYRVNGREQASSYLKLLKDQVDDYTVNHIHYQGDKIVANVQASVNGRRFRFQIRITVHNGRLKSMMVKVTDEHFKHVLKNIVG | 0.698 |
| EEDLHEAFERIKHALEHGDPKQVQNQFDPNVEVIIGNKTLHGRETLKDEVKKLQDEMQITWRSITINVDGDRVVVHYHIEFRINGQPQSMSYNVDARASNGKIEEMDLRISEDQQKRLNS | 0.06 |
| EEDLLEVMERLYQALRENDPKKAMENVDPNARFKVGNKEYRGREQQSKEDTKKRDKMRVDMRIESMEIHGETVHIDATVVNQVNGQPYRQKVIIRARLHNGQIQELEFQLDPSVQEKVRQ | 0.538 |
| EEDLLRKLSKILHQQDTGNEETVEKNADPNARFEVGDHKIHGMDQAAREIASKIREIRQEKRIESVSVHGNKMQIHFTFTQEKNGQPQTRRATMVVVMSNGKIKSMKVQYDK | 0.697 |
| EEDNRKHAEDIWRAIRKGDEERLKQLFDKDVKFHVGEKEIHGRENYARSVKERREEIKWSVTLDDVHVRGEKIVIRYTFTENNNGRPRHNVQVLEMTVTNGRVVNVDAKDDK | -0.148 |
| EEDQERQAEKLIRILENGDEDKAKEQADPNARFEYGDKKYHGMSNFATEVKKLRDHARVEFDNIRVRAHGDKVRIRLDFKVNINGDPSRFNVHMFNQMHNGQFKQMYKDLDPTELEQIHK | -0.25 |
| EEDVSNQVRHAFDLHRSNNPENLEEMFDKNARIRIGDKTIHGREQYSETAEQEIREQKVEYKSIDVKAKNGRVHIRIDFVSNVNGRPKRDSMQQTYEIHNGRISHASIESDS | -0.151 |
| EEDVVEQLKDWYRAVNSGDEERLTQLMDPNAKAEVGDKRVHGMDEYARQQRTRNEKLRFQINSIEIRAKGNHVSVNVDANYHFDGQPRRDTWHIRMQFHNGRLKTLSVTMDPTLLREMEK | 0.931 |
| EEEAAHQFNKWLSLMKHGNEHKASEMLDKDAHIKVGDKTLQGREDVQRDVRRRKEELKFSMTIVDYKDHGDKARLTVEQTNDHNGRPRTRRANVTVHVSNGRVKEIVINDDS | -0.265 |
| EEEAFDRAQQFVRAMETGDTTKLEQLADKDVRFDVGDKEVQGREEYSKTVHELKKEMRFRYEFKHYTVTGDEVDARVEFEYEHNGQPRRTQAKVTFIFQGDKLESINMKESQ | 0.146 |
| EEEAHTHAEQWFRVLQTGDEERAMKMVDKNAQLQIGDKDIHGREDVRKYVHDRKNEQDVEIKRYSIEVSGNSFNVKIHVRMEHNGQPRTDVLDMKFEVSNGRLTKVSVQSNG | 0.021 |
| EEEANKHLRQWWRNFRKGSEEKMKNLMDPNVRVVVGDKVYSGREQVMKMVRDQLTHARFDFDLERLSAHNGKIDITMKLVADINGKPVKVHVKADVQYSNGRIESIVLHVDPDQQRKLTE | 2.19 |
| EEEANRNVRKFEQALRHNDPHTLLELVDPNADLQIGNERIKGMHHAAKHLIDWMEEIRVQIRRVTFITRPNHAQLKRKVQAEVNGQPFEYTVEVVFNFHNGRVTEVHMRMDEDKQRKLRS | 0.12 |
| EEEAREAVKRVMKAHETNDPDKMMQNFDPNAKLTIGDTELHGREEARKHWEDNLKEIEIRIETWHVEDEGDKATLKVVYVREHNGQPTRERAVVYLRVKNGKVQTVSNQSRK | 0.292 |
| EEEAVRRYERMLRLVQNNNTEELNKQLDPNVEYDYGNHEIHGREQAVREMLKLQRKMRIEIQFDRVRHEGDKAVVKYTVLFDINGRPITNSATLYVKFKNGKIVYASAQMPEDFQRKVSS | 0.876 |
| EEEDAKRFKHLNERNDFTSLAKQVDEDATLRVGDKEIHGRERVTEFLEKAERAIDHVDIDSVDWSGDHVQFDAKYQVNGTTHHVIVRFRIHNGRIKYMQWDFTDDEVARRFLDNVQ | 0.573 |
| EEEDEKRIKSLLEHNDFTRFAELVDKDAHAVIGDKTIHGREEIKKEIEEFKKRIDHLEWKRVDVRNGKVSARMQVTINGRTLDVYMRADVENGHIHYVEIHARTEEAQRVLDEVLS | 1.58 |
| EEEDLKQVRKFLDAERDNDEDRLRELVDPNARFKVGDKTYHGMEDYVREVVHRMRQMQFEVDSIDNTVEGDHVRMRIHRTYRHNGKPSTKVYVLKARLHNGKIKHMQQDDDK | 0.152 |
| EEEDTKLMKQYADAVNNNNPDELRRQADENVRFEVGDNVFHGRKEYIKDVERKLRNIRITMNVKSLTVEGDKVNVTFEERHNKNGKPETFTAKARAHFHNGRIHSIRYEKDG | 0.049 |

| Sequence | protease stability score |
| --- | --- |
| EEEDVETAKQFIEAEEKGDEDRLVELADPNARFNVGDKNLHGREHAAREMRKHQEEADLRLEDVRLDVHNGRVDIELVFTHRHNGQPTRQKVKLTFEQHNGQLTHVQNDETK | 0.558 |
| EEEDVKRVEEDLHNGDPDRLRDLMDKDVSVEYGDKTVNGRENAAEIWEHIRRNVDRIRIVSMHVKNGKINFDLTAEVNGTKFQIRVVWELRNGRAKSVKIEVTDEEVKKLLDRLLQ | 2.04 |
| EEEDVRKAKKFIQLLNSNDQENLKTLADPNATFRYGDKHIHGMDRVNQYLDRVDHTMKRDIEVTSMSAQGDHVRIHAIMRFKVNGNPDQIDIIIVVVVENGRIKEVQIRMPEEDKRRVDR | 0.416 |
| EEEHAKHLNEVMERGDWERLAELADKDVKIRVGDKEYRGRELLERWNRKLYKKVDEVHIDSVHVRNGRITVNMEVNVNGDKVRAQFRIRIHNGKIKHINIQATSEENEERWQEMLD | 1.5 |
| EEEKKNRAHQFLKAVERGDPEELRKQFDPNAHARVGDKRYHGMEEWAKDVMRRVRELRMSIKRLSVDVQGNDVKVNMNLVINRNGKPKEFREVWYFKIHNGHFVELHVQEEP | 0.477 |
| EEEKLEKMVKDVFEAVQKGNMEELKQYLKEDVRFQFGDNRYQGVDQYVKLMKTMTEQGVQFEFKKFQMKDNTVTMETEAKYADHEVRVKAEARYEGGRLDEARVELTEEAKEIYKKG | 1.17 |
| EEEKLKKVAEEVFRMVQNGNYDQLAKLGKDNAEFQFADHRLKGKEQYKKYLEELVKRGVQFEVKKAQLKDNTVTMVTKAKYADTEATVTVQAKYEGGKLDRARVKLSEEVKKVLKKG | 0.065 |
| EEEKLQKVAKEMFDAVQKGNVDKLKKLGKEDVEFQFVDHRVKGADHYLQIMKKQLDHGVQFEIKQAQVKDNTVTMTTQVQYGDKTVRVEAKAEYDGGRLQRAEVKLTEEAKEAQKKG | -0.026 |
| EEEKLQKVMEKMFRAVQNGNVEQLKKLGKEDVQFQFVDKRVQGAETYAQEMEKTHRQGNQFEIKEAQVKDDKVTMRTVVDYGDQRITVKAEAQYDGGRLDNARVELTEEYREVLKKG | -0.214 |
| EEEKMEKLMKQLFDAVQKGDVDKFVKYLKEDVEFQFGDNRIKGVEEYKRTMEEMHKKGVQFEIKEAQNKDDTVKMRTVVHYGNQTFEVTAEATYDGGVLDKARVEVSEEAKEAFKKG | 0.992 |
| EEEKMKKIIKRMFDAVQKGNTEELRKYGKEDVKFEFIDDRNEGPQQYAERMKKMMKHGVQLEIKEVQLKDNTATMYTVVEYGNRRVTAKAEFEYDGGKLKEARVKISEEAKKVIKTG | 0.119 |
| EEEKVKKVVKKLFEAVQKGDKKKLQELLHEDVEFQFGVKRVKGAEQYMRTVDELRQRGVQIEVKKYQVKDDKARMVTVVRYGDKTVTMTAEAEYEGGVLKRARVELTDEAKELVKKG | 0.41 |
| EEEKYQKLAKKVFEAVDKGNYEEVVKLGDENGKFQFGDNRVEGLEQYKRLMEKFEKKGVQVRVRKAQNKDDTATMVTTVKYGDVENTVTAELKYEGGKLKEARVENDEEVKEAVKKG | 0.031 |
| EEELADLLRRFLENVKDNDENQLKRNLDPNVRVLVGDKTLHGREDVARWLTKHQREQRVEYRIKEYEIHGNHFNATMQAQNTNNGKPRTFEAVIRVQFRNGRFQVIQIEDKQ | 1.39 |
| EEELAKRIRDFLHWVEKGNDDRAMELADPNARVDIGDRDIHGRESIREWVKKMQDKQRVEFDVKHVTVRGNTVVVDLVMRVEHNGQPSETKYQFEAKDNNGHLKFIKVTTIS | 1.3 |
| EEELAKSYVELLKQLSEGNEENLKELMDPNARIEVGDKELHGREDIVNTWSKEAREIRIHYEIKHIEQEPGRVTIHARVEVQHDGQPSSKDFNVVFTAKNGRLTKMTVQDDG | 0.767 |
| EEELEEQLHRLLQLIREGNEHKVKEQMDPNVKVVYGDKEYKGRDEVETYLEEVINHWRVNFRVKHITVKGDKVDMKAEASYTHNGRPVNRKLTINAEIHNGRFKTLEFKWDG | 0.214 |
| EEELEKEAEKFFRIVHDGNEDDLKRYMDPNVDITVGDKSLTGHSHYARRVKQKKRELRVDIKIESIKADGNRVSATVVWVNNHNGEPQSDAAEVEFNFHNGRVTHIRNDDDK | 0.151 |
| EEELERRVEDQFKDWNTGDPDRDREMFDKDATVRVGDKKIKGSSQFRDELEKRRREMEFHVEVKDIQDEPGRVNVTFKFRTNHNGQPKEDTMRFHMTWHNGRIKHMSIHHDG | 0.641 |
| EEELFEQWQKIIENQEHGNEDRLQDQFDPNARIDVGDKRIRGRENLAKDQQDKLDNIRFDFQIDHVQDRPGKIVIKYHEVNNHNGKPRSDTVVVHIQAHNGKIQRIDVQKDK | -0.065 |
| EEELKKVWTEMQDALENGNEEKIEENFDPNAHFQIGDTHIHGMHEWAHQQFREMKDIRVQVEIESVTFSGDKVNVEYSFTLEIDGRPQSNTATMSARVHNGHFKSVSIRIDPKELKDRQK | 0.601 |
| EEELLERIKTFVKVYEHGDFKRLHRNLDKDVRVVVGDKHVRGREEAVRDMSEELRNMDQKIDFKTMHITNGKANLDFHFQNTVNGQPRRDRAHLIIRLHNGKFQEIKIQFSEEQERRQKG | 0.608 |
| EEELLQRATEFLHAQETNDPKRLKEQADPNARFRVGDKTIHGMDEYVRQLEQTEREMKVSLEIKHVTLTGDKADVEAEVTKDRNGRPDRFRVRYEFEARNGKFVDVRIQEDR | 0.336 |
| EEELNKVFEDLLEAEKTGDPDKIMRYFDPNARVSYGDKHIHGREEIRKDADRRKEHMRRDIHDYRIDARGDKVRFTADFTQTHNGQPRRHRMRMEVRVKGDKFRHFRIDEDG | 0.083 |
| EEELQKKASEFIRLQQKGDSEEVMKNVDPNARINVGDKVYDGREQLAKDLHRSKRESRMHFDLKSISVENGKVDVRARMHVVENGQPRRFRVRIIFHQENGRITHFQYHTDD | 0.258 |
